Measurements: patent CN115197317A (ANYUAN PHARMACEUTICAL TECH SHANGHAI CO LTD, dated 2022)

Tests used:
刺突S-鼠Fc融合蛋白 (S-mFc) = 刺突S-鼠Fc融合蛋白 (S-mFc) (SARS-CoV-2; mouse, UniProt P0DTC2 14-1213)
[1] = biological target: T1, SARS-CoV-2 S蛋白 (ACRO Biosystems, coated in ELISA 7.1) (SARS-CoV-2, UniProt P0DTC2 16-1213); assay: indirect ELISA, S protein coated at 0.1 μg/mL
T1 construct: also called SARS-CoV S蛋白(ACRO Biosystems)

SARS-CoV-2 S蛋白(His标签) = SARS-CoV-2 S蛋白(His标签) (SARS-CoV-2, UniProt P0DTC2 16-1213); assay: competition ELISA, S protein (His tag) coated, HRP-hACE2-Fc as competitor

Binder | IC50 (刺突S-鼠Fc融合蛋白 (S-mFc)) [µg/mL] | EC50 [1] [µg/mL] | IC50 (SARS-CoV-2 S蛋白(His标签)) [µg/mL]
鼠源抗体ST-10-4 (antibody, V domains shown) VH: QVTLKESGPGILQPSQTLTLTCSFSGFSLDSSNMGVSWIRQTSGKGLEWLAHIYWGDDNRYNPSLKSRLTVSKDTSSNQVFLKLTNVDTADTATYYCARKWNWDWFPYWGQGTLVTVSA VL: DIVLTQSPTSLPVSLGQRATISCRASKSVSASGYSFMHWYQQKPGQPPKLLISLASNLESGVPARFSGSGSGTDFTLNIHPVEEEDAATYYCQHSRELPLTFGAGTKLELK | 0.0165 | – | –
人源化抗体hST-35-4 (antibody, V domains shown) VH: EVQLVQSGAEVKKPGSSVKVSCKTSGYTFTTYTIHWIRQAPGQGLEWIGAVNPGNADTSYSQKFKGRATLTADKSSNTAYMELSSLRSEDTAVYYCARDAYPYFYALDSWGQGTTVTVSS VL: DIQMTQSPSSLSASVGDRVTITCRAGQEISSYLTWLQQKPEGTIKRLIYAASTLDSGVPKRFSGSRSGSDYTLTISSLQPEDFATYYCLQYASYPWTFGGGTKVEIKR | 0.0163 | 0.0018 | 0.194
人源化抗体hST-10-4 (antibody, V domains shown) VH: EVTLKESGPALVKPTQTLTLTCTFSGFSLDSSNMGVSWIRQPPGKGLEWLAHIYWGDDNRYNPSLKSRLTVSKDTSKNQVVLTMTNMEPVDTATYYCARKWNWDWFPYWGQGTTVTVSS VL: DIVLTQSPDSLAVSLGERATINCRASKSVSASGYSFMHWYQQKPGQPPKLLISLASNLESGVPARFSGSGSGTDFTLTISRLQAEDVAVYYCQHSRELPLTFGAGTKLEIKR | 0.0123 | 0.0023 | 0.257
鼠源抗体ST-35-4 (antibody, V domains shown) VH: QVQLQQPGAELVRPGASMKLSCKTSGYTFTTYTIHWIKQTPGQGLEWIGAVNPGNGDTSYSQKFKGRAILTADKSSNTASMQFSSLTSEDSAVYYCARDGYPYFYALDSWGQGTSVTVSS VL: DIQMTQSPSSLSASLGERVSLTCRAGQEISSYLTWLQQKPDGTIKRLIYAASTLDSGVPKRFSGSRSGSDYSLTINSLESEDFADYYCLQYASYPWTFGGGTKVEIK | 0.0118 | – | –
